Experiments:
Assay in all cases: purified protein
Settings in all cases: 25 mM Tris-HCl pH 7.4, 37 °C, 0.05 μM enzyme, no added metal mentioned
[1] = substrate: N=C(N)NCCC[C@H](N)C(=O)Nc1ccc([N+](=O)[O-])cc1
[2] = substrate: N[C@@H](Cc1ccccc1)C(=O)Nc1ccc([N+](=O)[O-])cc1
[3] = substrate: C[C@H](N)C(=O)Nc1ccc([N+](=O)[O-])cc1
[4] = substrate: CC(C)C[C@H](N)C(=O)Nc1ccc([N+](=O)[O-])cc1
[5] = substrate: NCCCC[C@H](N)C(=O)Nc1ccc([N+](=O)[O-])cc1

B1: LmAmpII (Listeria monocytogenes EGD-e) (protein)
chain: MTVFSEKLEKYAELIVKVGVNVQPEQKVVIMAPVDAAPLVRLISKYAFEVGAEDVIMDWRDEELGALRYKNAPLRVFESAPVHRVAEKTELAKEGACFISITSEDPDLLNGVDSNKIATFQKTMGGAMSEFRELMQANVVSWTVVAAASQGWAAKVFPDLTPAEQMETLWEAIFETTRINTENPVETWKNHDQTLAAKAESLNEKQFTSLHYTAPGTDLTIGLPKNHLWVGAGSKNKKGHEFMANMPTEEVFCCADKLKVEGYVSSTKPLSYAGNIIDDFKITFEKGRIVGVEAASGEEILKDLIATDEGSHYLGEVALVPDPSPISQSGILFYNTLFDENASNHLAIGSAYAFNVKGGEEMSREELEAAGVNNSLTHVDFMIGSSEMDIDGVTESGEVVPVFRKGDWAF
Km [1]: 24.94 µM
Km [2]: 399.6 µM
Km [3]: 340 µM
Km [4]: 95.62 µM
Km [5]: 165.6 µM
